B1: P56 9-mer … (peptide)
peptide: RAKCKFSIL
modifications: here or on the partner: biotinylated heavy chain
B2: P22 9-mer … (peptide)
peptide: QLIAMDSAI
modifications: here or on the partner: biotinylated heavy chain
B3: P61 9-mer … (peptide)
peptide: CYLGRQKRF
modifications: here or on the partner: biotinylated heavy chain
B4: P46 9-mer … (peptide)
peptide: CPMSRLRLA
modifications: here or on the partner: biotinylated heavy chain
B5: P19 9-mer … (peptide)
peptide: IPVLTRWPL
modifications: here or on the partner: biotinylated heavy chain
B6: P60 9-mer … (peptide)
peptide: YLRRQKRLK
modifications: here or on the partner: biotinylated heavy chain
B7: P58 9-mer … (peptide)
peptide: HVPKILSGK
modifications: here or on the partner: biotinylated heavy chain
B8: P97 9-mer … (peptide)
peptide: LMAQRLLLR
modifications: here or on the partner: biotinylated heavy chain
B9: P82 9-mer … (peptide)
peptide: RVGNCKHLK
modifications: here or on the partner: biotinylated heavy chain
B10: P73 9-mer … (peptide)
peptide: LLERNSFEV
modifications: here or on the partner: biotinylated heavy chain
B11: P87 9-mer … (peptide)
peptide: FLFLLLPLS
modifications: here or on the partner: biotinylated heavy chain
B12: P98 9-mer … (peptide)
peptide: IVWWCPMSR
modifications: here or on the partner: biotinylated heavy chain

For this assay, the target named is HLA-B*08:01 (human). The experiment in a line: UV-induced peptide exchange, HLA class I ELISA; Pos peptide = 100%. The settings on record: remark: other sources report otherwise. (In general: In an ELISA, binding on a coated surface is turned into a signal by an enzyme label.)
As to B1, the exchange rate with Pos peptide turned out to be 38%.

Molecule B2 showed an exchange rate with Pos peptide of 3.9%.

B3 registered an exchange rate with Pos peptide of 3.6%.

B4 had an exchange rate with Pos peptide of 14.5%.

B5: the exchange rate with Pos peptide was determined as 14.5%.

Molecule B6 had an exchange rate with Pos peptide of 10.2%.

The molecule B7 showed an exchange rate with Pos peptide of 5.3%.

Molecule B8 displayed an exchange rate with Pos peptide of 2.7%.

B9 returned an exchange rate with Pos peptide of 1.4%.

For the molecule B10, the exchange rate with Pos peptide is 2.6%.

Take B11: the exchange rate with Pos peptide was 3.1%.

Molecule B12 came in with an exchange rate with Pos peptide of 2.4%.

The values are drawn from patent publication US20230035403A1, “Method For Determining Responsiveness To Prostate Cancer Treatment” (Janssen Biotech, Inc., priority 2020, published 2023).
